Measurements as given in paper PMC5709507.

How the values were obtained:
[1] = target: endogenous RORα of mouse cerebellar neurons and cerebellum (UniProt P51448); assay: co-immunoprecipitation (IP: FLAG, IB: RORα), quantified output band corrected by input band; settings: primary cerebellar neurons, transient expression; n = 3; parent: est. 3.2; read off a plot
[2] = target: endogenous RORα of mouse cerebellar neurons and cerebellum (UniProt P51448); assay: co-immunoprecipitation (IP: RORα, IB: FLAG), quantified output band corrected by input band; settings: primary cerebellar neurons, transient expression; n = 3; parent: est. 0.42; read off a plot

UniProt P51448, sequence (P51448 whole entry): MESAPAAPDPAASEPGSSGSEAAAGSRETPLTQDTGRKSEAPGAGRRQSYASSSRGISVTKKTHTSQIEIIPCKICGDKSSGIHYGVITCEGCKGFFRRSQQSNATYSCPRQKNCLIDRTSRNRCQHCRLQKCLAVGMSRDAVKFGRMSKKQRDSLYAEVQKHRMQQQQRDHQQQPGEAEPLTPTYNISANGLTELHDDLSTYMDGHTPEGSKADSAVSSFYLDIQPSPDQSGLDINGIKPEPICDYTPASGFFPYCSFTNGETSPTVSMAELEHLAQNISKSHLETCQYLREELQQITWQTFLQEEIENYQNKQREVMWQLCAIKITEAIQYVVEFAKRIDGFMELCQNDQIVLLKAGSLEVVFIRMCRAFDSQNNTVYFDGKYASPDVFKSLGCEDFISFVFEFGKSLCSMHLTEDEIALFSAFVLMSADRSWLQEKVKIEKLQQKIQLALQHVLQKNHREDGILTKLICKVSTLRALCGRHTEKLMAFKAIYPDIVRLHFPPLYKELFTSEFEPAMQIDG

- response [1]: 3.1
- response [2]: 0.4
Substance: Human YAP2 WT (FLAG-YAP2 WT) WQDP>AQDA (first WW domain)
